Laboratory results reported in publication PMC13036491, “RNA binding protein Musashi1 interacts with the viral genomic RNA and restricts SARS-CoV-2 infection by repressing translation”.

Molecular target: GST-Msi1 (Homo sapiens, UniProt O43347 1-362)
Assay: EMSA
Details: protein: recombinant; tags: N-terminal GST (pGEX 5X-2); label: fluorescein-12-UTP

Sequence of GST-Msi1 (O43347 whole entry): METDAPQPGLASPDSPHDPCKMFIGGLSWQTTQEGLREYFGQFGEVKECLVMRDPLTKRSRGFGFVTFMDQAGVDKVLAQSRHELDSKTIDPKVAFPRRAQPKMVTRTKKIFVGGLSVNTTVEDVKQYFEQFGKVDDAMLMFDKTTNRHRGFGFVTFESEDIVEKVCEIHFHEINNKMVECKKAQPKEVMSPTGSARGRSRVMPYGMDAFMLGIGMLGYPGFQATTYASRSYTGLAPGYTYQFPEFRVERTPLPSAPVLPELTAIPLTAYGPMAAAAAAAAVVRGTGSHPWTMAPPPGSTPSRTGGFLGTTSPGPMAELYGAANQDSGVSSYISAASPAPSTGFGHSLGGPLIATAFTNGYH

B1: M1 mutant RNA (ssRNA)
RNA: GGGUAGCACAAGCCGAUGCCGUUAA
B1: no binding.

B2: M2 mutant RNA (ssRNA)
RNA: GGGAUUUUAGCCGUGCUAUCCCCA
B2: no binding.
